Laboratory results from patent US20250042994A1 (HAINAN SIMCERE ZAIMING PHARMACEUTICAL, published 2025).

Columns and labels:
human CD19 on Raji cells = molecular target: T1, human CD19 on Raji cells (human, UniProt P15391 20-556); assay: FACS on Raji cells
T1 construct: whole, on cells
T1 sequence (looked up): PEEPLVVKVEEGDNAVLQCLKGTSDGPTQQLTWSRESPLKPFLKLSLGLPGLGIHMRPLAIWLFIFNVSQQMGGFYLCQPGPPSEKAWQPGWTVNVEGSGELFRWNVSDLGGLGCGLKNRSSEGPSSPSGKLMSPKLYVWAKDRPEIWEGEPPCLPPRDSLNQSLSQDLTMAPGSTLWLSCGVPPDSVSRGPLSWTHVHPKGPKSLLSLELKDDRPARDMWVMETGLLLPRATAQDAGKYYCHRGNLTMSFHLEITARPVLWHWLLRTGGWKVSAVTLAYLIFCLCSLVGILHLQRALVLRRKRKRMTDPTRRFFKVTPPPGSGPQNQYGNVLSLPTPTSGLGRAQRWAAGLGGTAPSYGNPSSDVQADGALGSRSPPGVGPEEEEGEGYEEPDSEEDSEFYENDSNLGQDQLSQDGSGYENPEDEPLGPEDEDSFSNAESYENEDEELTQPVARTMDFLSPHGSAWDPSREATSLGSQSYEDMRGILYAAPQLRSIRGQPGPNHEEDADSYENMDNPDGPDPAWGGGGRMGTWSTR

[1] = molecular target: T2, human CD19 on CHO-K1-human CD19 cells (human, UniProt P15391 20-556); assay: FACS on CHO-K1-human CD19 cells
T2 construct: whole, on cells; also called CHO-K1-human CD19-2C8
T2 sequence (looked up): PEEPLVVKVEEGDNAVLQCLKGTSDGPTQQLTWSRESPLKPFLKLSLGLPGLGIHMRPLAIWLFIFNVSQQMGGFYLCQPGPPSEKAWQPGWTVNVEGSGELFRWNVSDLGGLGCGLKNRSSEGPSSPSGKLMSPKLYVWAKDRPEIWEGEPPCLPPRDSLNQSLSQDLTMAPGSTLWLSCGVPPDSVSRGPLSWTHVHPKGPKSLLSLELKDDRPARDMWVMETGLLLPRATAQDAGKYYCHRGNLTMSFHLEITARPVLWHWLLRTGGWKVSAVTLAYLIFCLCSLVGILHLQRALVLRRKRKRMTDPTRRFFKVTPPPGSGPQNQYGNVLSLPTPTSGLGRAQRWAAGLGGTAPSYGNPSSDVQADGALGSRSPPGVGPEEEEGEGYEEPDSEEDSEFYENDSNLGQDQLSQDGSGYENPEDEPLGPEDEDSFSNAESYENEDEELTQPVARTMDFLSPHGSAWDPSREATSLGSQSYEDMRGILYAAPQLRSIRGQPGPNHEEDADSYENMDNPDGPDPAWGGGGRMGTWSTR

monkey CD19 protein [2] = molecular target: T3, monkey CD19 protein (monkey); assay: ELISA, coated monkey CD19 protein
T3 construct: also called monkey CD19-His protein
Protocol: (§1) Human CD19-his protein (purchased from ACROBiosystems, catalog number: CD9-H52H2) was diluted with PBS to a final concentration of 4 μg/mL, and then added to a 96-well ELISA plate at 100 μl/well. The plate was sealed with a plastic film and incubated overnight at 4° C., the plate was washed 2 times with PBS the next day, and then a blocking solution [PBS+2% (w/w) BSA] was added for blocking at room temperature for 2 h. The blocking solution was poured off, and 100 nM gradiently diluted CD19 chimeric antibody or control antibody was added at 50 μl/well. After incubation at 37° C. for 2 h, the plate was washed 3 times with PBS. […] TMB substrate was added at 50 μl/well, and incubated at room temperature for 10 min, and then a stop solution (1.0 N HCl) was added at 50 μl/well. The OD450 nm values were read by an ELISA microplate reader (Multimode Plate Reader, EnSight, purchased from Perkin Elmer).
(§2) In order to detect the species cross-binding activity of the chimeric antibodies, an ELISA plate was coated with commercial murine CD19 (ACROBiosystems, catalog number: 50510-M08H) and monkey CD19 (ACROBiosystems, catalog number: 90051-C08H), respectively, and the ELISA detection was performed according to the method in example 5.1.

[3] = molecular target: T4, monkey CD19 on HEK293T-monkey CD19 cells (monkey); assay: FACS on HEK293T-monkey CD19 cells
T4 construct: whole, on cells
Procedure, shortened: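 Antibody binding was read as MFI by flow cytometry and EC50 was taken from curve fitting. Before that, cells at 2×10⁶ cells/ml in PBS with 2% (w/w) BSA were exposed to samples for 2 h on ice and washed. Parental HEK293T cells were tested the same way.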

[4] = molecular target: T5, cynomolgus monkey CD19 on peripheral blood B cells (cynomolgus monkey (Macaca fascicularis), UniProt A0A2K5W8L9 20-557); assay: FACS, cynomolgus PBMC, CD20+ B cells
T5 construct: whole, on cells; also called cynomolgus monkey B cells
T5 sequence: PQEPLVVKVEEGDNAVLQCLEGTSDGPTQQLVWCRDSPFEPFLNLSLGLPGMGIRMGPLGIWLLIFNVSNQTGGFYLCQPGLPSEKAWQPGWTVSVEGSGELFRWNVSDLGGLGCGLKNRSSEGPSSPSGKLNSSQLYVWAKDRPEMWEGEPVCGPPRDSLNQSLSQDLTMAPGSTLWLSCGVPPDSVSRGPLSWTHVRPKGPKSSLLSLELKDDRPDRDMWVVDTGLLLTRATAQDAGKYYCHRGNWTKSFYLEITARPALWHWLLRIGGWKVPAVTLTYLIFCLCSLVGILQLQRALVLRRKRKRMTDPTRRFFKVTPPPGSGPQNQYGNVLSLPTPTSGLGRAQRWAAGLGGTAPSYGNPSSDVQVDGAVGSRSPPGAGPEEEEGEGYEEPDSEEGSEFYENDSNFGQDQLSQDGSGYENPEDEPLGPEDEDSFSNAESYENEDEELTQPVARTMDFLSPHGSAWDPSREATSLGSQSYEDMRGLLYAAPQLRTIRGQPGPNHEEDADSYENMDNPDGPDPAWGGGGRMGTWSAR

monkey CD19 protein [5] = molecular target: T3, monkey CD19 protein; assay: ELISA on coated monkey CD19-His
Protocol: as §1, §2

[6] = molecular target: T6, human CD19 exon1-3-His tag protein (human, UniProt P15391 20-186, limits assumed); assay: ELISA on coated human CD19 exon 1-3-His
T6 construct: membrane-distal part of the extracellular region, made in HEK293E cells; not shown: His tag
T6 sequence (looked up): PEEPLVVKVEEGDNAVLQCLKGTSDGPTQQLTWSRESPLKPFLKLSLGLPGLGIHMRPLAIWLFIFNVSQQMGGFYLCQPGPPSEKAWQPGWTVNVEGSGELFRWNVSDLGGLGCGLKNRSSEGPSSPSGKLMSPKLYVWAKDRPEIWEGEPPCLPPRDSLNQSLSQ

monkey CD19-His protein = molecular target: T7, monkey CD19-His protein (monkey); assay: SPR Biacore, method of example 7.1, monkey CD19-His
T7 construct: bought protein; also called monkey CD19 protein
Protocol: A sample buffer and a running buffer were HBS-EP+ (10 mM HEPES, 150 mM NaCl, 3 mM EDTA and 0.05% surfactant P20) (GE Healthcare; BR-1006-69). The flow-through cell was set to 25° C. The sample block was set to 16° C. Both were pretreated with the running buffer. In each cycle, an antibody to be detected was first captured with a Protein A chip, and then a single concentration of CD19 antigen protein was injected. The binding and dissociation processes of the antibody and the antigen protein were recorded, and finally Glycine pH 1.5 (GE Healthcare; BR-1003-54) was used to complete chip regeneration. The binding was measured by injecting different concentrations of recombinant human CD19-His proteins in a solution for 240 s with a flow rate of 30 μl/min. The concentration started from 200 nM (see the detailed results for the actual concentration in the test) and was diluted at 1:1, making a total of 5 concentrations. The dissociation phase was monitored for up to 600 s and was triggered by switching from sample solution to running buffer. The surface was regenerated by washing with a 10 mM glycine solution (pH 1.5) for 30 s at a flow rate of 30 μl/min. Bulk refractive index difference was corrected by subtracting the response obtained from the goat anti-human Fc surface. Blank injection was also subtracted (=double reference). For calculation of apparent KD and other kinetic parameters, Langmuir 1:1 model was used.
According to the method in example 7.1, the affinity of the chimeric antibodies to monkey CD19 (ACROBiosystems, catalog number: 90051-C08H) protein was determined.

Human CD19-his protein = molecular target: T8, Human CD19-his protein (human, UniProt P15391 20-291); assay: SPR Biacore, Ab captured on Protein A, CD19-His analyte
T8 construct: bought protein; also called recombinant human CD19-His; CD19 full-length protein; not shown: His tag
T8 sequence (looked up): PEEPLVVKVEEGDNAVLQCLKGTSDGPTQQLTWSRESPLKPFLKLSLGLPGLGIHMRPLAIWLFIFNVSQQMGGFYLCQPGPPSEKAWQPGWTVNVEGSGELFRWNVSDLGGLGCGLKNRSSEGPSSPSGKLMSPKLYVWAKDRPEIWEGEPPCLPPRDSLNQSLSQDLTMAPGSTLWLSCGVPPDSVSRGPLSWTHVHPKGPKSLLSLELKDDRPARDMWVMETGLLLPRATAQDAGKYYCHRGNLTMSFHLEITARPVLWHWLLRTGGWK
Procedure, shortened: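 Apparent KD came from a Langmuir 1:1 fit of double-referenced sensorgrams. Recombinant human CD19-His analyte (top 200 nM, 1:1 serial dilution, 5 concentrations) flowed over Protein A-captured antibody for 240 s at 30 μl/min, then buffer for up to 600 s. Running buffer HBS-EP+ at 25 °C; regeneration with 10 mM glycine pH 1.5.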

B1: F5.11.2 (antibody, human IgG1, V domains shown)
VH: EVQLVESGGDLVKPGGSLKLSCAASGFTFSSYGMSWVRQTPDKRLEWVATISHGGSYTHYPDSVKGRFTISRDNAKNTLYLQMNSLKSEDTAMYYCVRLPITTVEAPYFFDYWGQGTTLTVSS
VL: DIQMTQTTSSLSASLGDRVTISCRASQDIRNYLNWYQQKPDGTVKLLIYYTSILHSGVPSRFSGSGSGTDYSLTINNLEQEDVATYFCQQGNTLYTFGGGTEVELR
notes: human-murine chimeric antibody, human IgG1
EC50 (human CD19 on Raji cells): 23.4 nM
Maximum mean fluorescence intensity (human CD19 on Raji cells): 16600
EC50 [1]: 14.7 nM
Maximum mean fluorescence intensity [1]: 46600
OD450 at 0.0001 nM (monkey CD19 protein [2]): 0.06 OD450
OD450 at 0.001 nM (monkey CD19 protein [2]): 0.06 OD450
OD450 at 0.01 nM (monkey CD19 protein [2]): 0.06 OD450
OD450 at 0.10 nM (monkey CD19 protein [2]): 0.12 OD450
OD450 at 1.00 nM (monkey CD19 protein [2]): 0.71 OD450
OD450 at 10 nM (monkey CD19 protein [2]): 1.25 OD450
OD450 at 100 nM (monkey CD19 protein [2]): 1.16 OD450
EC50 [3]: 13 nM
Maximum mean fluorescence intensity [3]: 80600
Proportion of chimeric antibody positive cells to B cells (%) at 1 nM [4]: 12%
Proportion of chimeric antibody positive cells to B cells (%) at 10 nM [4]: 34%
Proportion of chimeric antibody positive cells to B cells (%) at 100 nM [4]: 76%
EC50 (read off the curve) (monkey CD19 protein [5]): ~0.8 nM

B2: F3.124.7 (antibody, human IgG1, V domains shown)
VH: EVQLQQSGPVLVKPGASVKMSCKASGYTFTDYYMNWVKQRHGKSLEWIGISNPYNGGTSYNQKFKDKATLTVDKSSSTAYMELNSLTSEDSAVYYCAREGGTAQPTSGMDYWGQGTSVTVSS
VL: NIMMTQSPSSLAVSAGEKVTMSCKSSQSVLYSSNQKNYLAWYQQKPGQSPKLLIYWASTRESGVPDRFTGSGSGTDFTLTISSVQPEDPAVYYCHQYRSSYTFGGGTKLEIK
notes: human-murine chimeric antibody, human IgG1 constant
EC50 (read off the curve) [6]: ~0.03 nM
Kd (monkey CD19-His protein): 0.803 nM
koff (monkey CD19-His protein): 5.62e-05 s⁻¹
kon (monkey CD19-His protein): 70000 M⁻¹ s⁻¹
Kd (Human CD19-his protein): 1.99 nM
koff (Human CD19-his protein): 0.000138 s⁻¹
kon (Human CD19-his protein): 69300 M⁻¹ s⁻¹
